Laboratory results published in the supplement of paper PMC12042874.
± gives the uncertainty stated by the source.

Assay: amyloid nucleation score (Sup35N fusion, yeast selection) (log enrichment); library NNK3; higher = more nucleation; inactive = no reads after selection
How it was run: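 DiMSum was used to calculate nucleation scores as log enrichment of output over input reads, centred on the mode score of non-aggregating sequences. Sequences with fewer than 100 input reads were not scored. Input and output came from Illumina sequencing of plasmid inserts in psi-negative yeast expressing peptides of 20 random codons fused to Sup35N, induced 24 hours with 100 μM copper sulfate and then grown 7 days at 30°C on medium lacking adenine and uracil.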

Substance	amyloid nucleation score
RMCKTATVIHYGLFINLTEF	inactive
VDIVRVSCEALSLATDCQFL	inactive
KCNRFRG	inactive
MLRSDPS	inactive
WKFWVAC	inactive
HVNMSNIVLVLFSNSFNMHE	1.75 ± 0.082
SSSRCITLLVSIMVPISATC	inactive
SFVPDLRARVMSCSGCSTLG	inactive
NHRSG	inactive
IRNGYSRICRIQRLGSMGM	inactive
CYIGCNLEILNRRDKPFIIR	inactive
RSNICQFLKDFYKRCRKLF	inactive
EEGCYHLLNNLGRNCSECNG	inactive
DRCGVFNTPYLVNSELILC	inactive
LNIIP	inactive
GGSFREVVNRRTRVGEDP	inactive
HCDLGESFTALYSFHAVLML	inactive
SFYEEGFVSYLDIRGIVYGA	inactive
YLIYDRLSIQPDSSHHLVV	-0.124 ± 0.62
LPPFCGSGCLSGLLRSKTRR	0.617 ± 0.19
FTNNCYHLAMY	-0.456 ± 0.74
PATLQSPISSK	inactive
SSKMLTLMWMVGPPLSTDGS	inactive
VCVVWNIVDQAYNMW	0.253 ± 0.34
MYTISVKAMNGWYLSLKVGC	inactive
GVIFEISVSCVQTFCPFHYL	1.21 ± 0.093
MESRGALYLSFRGRNCSSTQ	0.371 ± 0.19

Substance	amyloid nucleation score
VFTFFSMCMTPSYYPCRLAC	inactive
PSVIFRDWFEKMWLDRISVV	inactive
SLVSYINGKVKNVPCKSCCY	inactive
YTLKCIQVVWLSMPVSVSNV	inactive
GYLLRFMCCNCIPSTEIMIE	2.73 ± 0.056
VYPCKIFCVFVVAVILFFSL	inactive
LDFCFLGHRWRSFSGSYRKS	inactive
DSVYGMHGKTTFT	inactive
LNLYRLPLTPSLSASRMIAY	inactive
ALRGWILWW	inactive
RFVAHG	inactive
SDGKQQLFKENS	inactive
NFLNCVFRYIYD	2.54 ± 0.067
LNDDLCSRVFWVYEYHECQV	inactive
FCFRDIYKRSMSRSAYDSG	inactive
CMFFLLPIIAYSV	inactive
GKYSYLDIPTTIVYMFIH	1.44 ± 0.14
VSCMLLSRDLCLQSFIWMLL	inactive
ILNTVIGSQLDELPVAAFSS	inactive
VNVTIGIYKRHRYLWSGIAM	inactive
THDAVNFVLRHWAITGNTDM	inactive
LNKLEVNDVSIGYVNCTLFK	inactive
GTSIYSYRYLRYFSMFNM	inactive
KGHCQAVGLKEEKPR	inactive
AGFLRDLMCDHLEDDGVPAV	inactive
HLYLSSVENLKHLFKGVSVH	-0.381 ± 0.9
GWGPRPSKNVCHIRCDMFFM	1.59 ± 0.13

Substance	amyloid nucleation score
AFGLVLLSTLHNASIIPRWF	inactive
YKVGRSHCGKKSEDLP	inactive
WEGMNNKIRAYAYIATLVYT	inactive
FIIVPKWSCFLVSSMKFRVV	inactive
IHCGACYSACWVRLGAWMTC	inactive
VDHGRD	inactive
VIARDDINCVRDGGQGLQIS	inactive
MLDCYWPFPNISIRIWTEWV	inactive
VLLTVECLFYSS	inactive
TRYPFQWLLRVGWKGAHLGM	inactive
PIFWGSSDDYLCRWTLTMCH	-0.3 ± 0.37
DIEMY	inactive
CYGALVVQTAYME	inactive
NGFMDNCAVSCRTIIVVSYR	2.59 ± 0.074
CYQPRYLSWLKVRDCEDGVY	inactive
CLYKSFLIS	inactive
DVRIIAV	inactive
LYFYNIESLAMIFNMNENLV	2.31 ± 0.058
WGEPIVLDLSSFFDLVDRHG	inactive
RKLWLMCYS	inactive
DVLRVPMNEVTNWSIPPY	inactive
NVVLSVGMFLLKWS	1.31 ± 0.09
YAEPYRRDVPGSCEYLTMM	inactive
GLALGWHFTC	inactive
GPIEPFSMLSM	-0.291 ± 0.7
QVDISNLDCQSCRDKRVGLG	inactive
